Variants at the floor of the assay were thinned out.
B1: TPR 5TU (parent)
chain: GGAUCUUCUCGAUCUAACAAAAAAGACAAAUCUGCCACAAAGCUUGAGAGCAUCUUCGGAUGCAGAGGCGGCAGCCUUCGGUGGCGCGAUAGCGCCAACGUUCUCAACUAUGACACGCAAAACGCGUGCUCCGUUGAAUGGAGUUUAUCAUG

Variants of: B1
Experiment: polymerase ribozyme fitness, log enrichment relative to wild type (log ratio); higher = more active; in vitro selection for triplet polymerase activity
Procedure, shortened: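 For each subunit of a heterodimeric triplet polymerase ribozyme, a mutant library was built by PCR and transcribed, then taken through a single in vitro selection round in triplicate. Selection involved annealing to a biotinylated primer, the partner subunit and triplets, incubation frozen at −7 °C, gel excision of extended constructs, capture on streptavidin beads and RT-PCR. Genotypes were retained after Illumina sequencing of inputs and outputs only with ≥10 input reads and ≥1 read in each output. Fitness is defined as the logarithm of a genotype's enrichment relative to wild-type enrichment, using inverse-variance-weighted averages across replicates, with the logarithm taken to base 2.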

Row | Variant | polymerase ribozyme fitness (log ratio)
1 | GGUUCUUCUCGAUCUAACACAAAAGUCAAAUCUGCCACAAAGCUUGAGAGCAUCUUGGGAUGCAGAGGCGGCAGCCUUCGGUGGCGCGAUAGCGCCAACGUUCUCAAUUAUGACACGCAAAACGCGUGCUCCGUUGAAUGGAGUUUAUCAUG [A3U A20C A26U C57G C108U] | ≤ -4.2
2 | GGAUCUUGUCGAUCUUACAUAAAAGACAAAUCUGCCACAAAGCUUGAGAGCAUCUUCGGAUGCAGAGGCGGCAGCCUUUGGUGGUGCGAUAGCGCCAACGUUCUCAACUAUGACCCGCAAAACGCGUGCUCCGUUGAAUGGAGUUUAUCAUG [C8G A16U A20U C79U C85U A115C] | ≤ -4.2
3 | GGAUCUUCUCGAUCUAACAAAAAAGAACAAUCUGCCACAAAGCUUGAGAGCAUCUUGGGAUGCAGAGGCGGCAGCAUUCGGUGGCGCGAUCGCGCCAACGUUCUCAACUAUGACACGCAAAACGCGUGCUCCGUUGAAUGGAGUUUAUCAUG [C27A A28C C57G C76A A91C] | ≤ -4.2
4 | GGAUCUUCUCGAUCUAACAAAAAAGACAAAUCUACCACAAAGCUUGAGAGCAUCUUCGGAUGCAGAGGCGGCAGCCUUCGGUGGCGCGAUAGCGCCAACGUUCUCAACUAUGACACGCAAAACGCGUGCUCCGUUGAAUGGAGUAUAUCAUG [G34A U145A] | -0.571
5 | GGAUCGCCUCGAUCUAACAUAAAAGACAAAUCUGCCACGCACCUUGAGAGCAUCUUCGAAUGCAGAGGCGGCAGCCUUCGGUGGCGCGAUAUGGCCAACGUUCUCAACUAUGACUUGCAAAACGCGUGCUCCGUUGAAUGGAGUUUAUCAUG [U6G U7C A20U A39G A40C G42C G59A G92U C93G A115U C116U] | ≤ -4.2
6 | GGAUCUUCUCGAUCUAACAAAAAAGACAAAUCUGCCACAAAGCUUUAGAGCAUCUUCGGAUGCAGAGGCGGCAGCCUUCGGUGCCGGGAUAGCGCCAACGUUCUCAACUAUGACACGCAAAACGCGUGCUCCGUUGAAUGGAGUUUAUCGUG [G46U G84C C87G A150G] | ≤ -4.2
7 | GGAUCUUCUCGAUUUAACAAAAAAGACAAAUCUGCCACAAAGCUUGCGAGCAUCUUCGGAUGCAGAGGCGGCAGCCUUCGGUGACGCGAUAGCGCCAACGUUCUCAACUAUGACACGCAAAACGCGUGCUCCGUUGAAUGGAGUUUAUCAUG [C14U A47C G84A] | -2.49
8 | GGAUCUUCUCGAUCUAACAAAAAAGACAAAUCUGCCACAAAGCUUGAGAGCAUCUACGGAUGCAGAGGCGGCAGCCUUCGGUGGCGCGAUAGCGCCAACGUUCUCAACUCUGACACGCAAAACGCGUGCUCCGUUGAAUGGAGUUUAUCAUG [U56A A110C] | -3.84
9 | GGAUCUUCUCGAUCUCACAAAAAGGACAAAUCUGCCACAAAGCUUGAGAGCAUCUUCGGAUGCAGAGGCGGCCGCCUUCGGUGGCGCGAUAGCGCCAACGUUCUCAACUAUGACACGCAAGACGCGUGCUCCGUUGAAUGGAGUUUAUCAUG [A16C A24G A73C A121G] | ≤ -4.2
10 | GGCUCUUCUGGAUCUAACAAAAAAGACAUAUCGGCCAUAAAGCUUGAGAGCAUCUUCGGAUGUAGAGGCGGCAGCCUUCGGUGGCGCGAUAGCGCCAACGUUCUCAACUAUGACACGCAAAACGCGUGCUCCGUUGAAUGGAGUUUAUCAUG [A3C C10G A29U U33G C38U C63U] | ≤ -4.2
11 | GGAUCGUCUCGAUCUAACAAAAAAGACAAAUCUGCCACAAAGCGUGUGAGCACCUUCGGAUGCCGAGGCGGCAGCCUUCGGUGGCGCGAUAGCGCCAACGUUAUCAACUAUGACACGCAAAACGCGUGCUCCGUUGAAUGGAGUUUAUCAUG [U6G U44G A47U U53C A64C C103A] | ≤ -4.2
12 | GGAUCUUCUCGAUCUAACAAAAAAGACAAAUCUGCCACAUUGCUUGAGUGCAUCUUCGAAUGCAGAGGCGGCAGCCUUCGGUGGCGGGAUAGCGCCAACGUUCUCAACUAUGACACGCAAAACGCGUGCUCCGUUGAAUGGAGUUGAUCAUG [A40U A41U A49U G59A C87G U146G] | ≤ -4.2
13 | GGAUCUUCUCGAUCUAACAAAAAAGACAAAUCUGCCACAAAGCUUGAGAGCAUCUUCGGAUGCAGAGGCGGCAGCCUUCGGUGGCGCGAUAGCGCCAACGUUCUCAACUAUGUCACGCAAAACUCGUGCUCCGUUGAAUGGAGUUUAUCAUG [A113U G124U] | -2.07
14 | GGGUCUUCUCGAUCUAACAAAAAAGACAAAUCUGCCACAAAGCUUGAGAGCAUCUUCGGAUGCAGAGGCGGCAGCCUUCGGUGGCACGAUAGCGCCAACGUUCUCAACUAUGACACGCAAAACGCGUGCUCCGUUGAAUGGAGUUUAUCAUG [A3G G86A] | -1.52
15 | GGAUCUUCUCGAUCUAACAAAAAAGACAAAUCUGCCACAAAGCUUGAGAGCAUCUUCGGAUGCAGAGGCGGCAGCCUUCGGUGGCGCGAUAGAGCCAACGUUCGCAACUAUGACACGCAAAACGCGUGCUCCGUUGAAUGGAGUUUAUCAUG [C93A U104G] | -2.89
16 | GGAUCUUCUCGAUCUAACAAAAAAGACAAAUCUGCCACAAAGCUUGACAGCAUCUUCGGGUGCAGAGGCGGCAGCGUUCGGUGGCGCGAUAGCCCCAACGUUCCCAACUAUGACACGCAAAACGCGUGCUUCGUUGAAUGGAGUUUAUCAUG [G48C A60G C76G G94C U104C C131U] | ≤ -4.2
17 | GGAUCUUCUCGAUCUAACAAAAAAGACAAAUCUGCCACUAAGCUUGAGAGCAUCUUCGGAUGCAGAGGCGGCAGCGUUCGGUGGCGCGAUAUCGCCAACGUUCUCAAUUAUGACACGCAAAACGCGUGCUCCGUUGAAUGGAGUUUAUCAUG [A39U C76G G92U C108U] | ≤ -4.2
18 | GGAUCUUCUCGAUCUAACAAAAAAGACAAAUCUGCCAUAAAGCUUGAGAGUAUCUACGGAUGCAGAGGCGGCAGCCUUCGGUGGCGCGAUAGCUCCAACGUUCUAAACUAUGACACGCAAUACGCGUGCUCCGUUGAAUGGAGUUUAUCAUG [C38U C51U U56A G94U C105A A121U] | -4.15
19 | GGAUCUUCUCGAUCUAACAAAAAAGACAAAUCUGCCACAAAGCUUGAGAGCAUCUUCGGAUGCAGAGGCGGCAGCCUUCGGUGGCGCGAUAGCGCCAGCGUUCUCAACUAUGACACGCAGAACGAGUGCUCCGUUGAAUGGAGAUUAUCAUG [A98G A120G C125A U144A] | -1.16
